Target: human fibrinogen receptor (GPIIb/IIIa), purified (human) (UniProt P05106)
Assay: ELISA; GPIIb/IIIa coated at 40 nM on Nunc Maxisorb plates; 5′Nuc/SUMO 250 – 1.95 nM in solution, 0.1% Tween 20; detected with polyclonal anti-5′Nuc IgG or anti-SUMO IgG; apparent KD from four experiments

B1: 5′Nuc/SUMO fusion protein (Glossina morsitans morsitans 5′nucleotidase-related protein, recombinant, refolded) (enzyme)
chain: DDLYPLTIMHTNDFHARFEETNVKGNPCKSGEKCIGGLARVLHTIKKIIKEQEKKNIESLYINAGDNFQGTIWYNIGRWNVTSELMNIQPPDVMVLGNHEFDHGIDGLLPFLNNMDKTEIVVANMDARDEPQVAKKIKPFTIIKKKYRNIGVIGVVVEEVPDLANTGKLKFRNESEAILEAARNLKKEDPSVNIIIVVSHVGFDVDKIIAERTGSEVDIIVGGHSHTVLYTGTPPGPEKPEDNYPYVYNHPSGNKVLVVQAVCHAKYVGNLTVFFDKKGKVVTYEGAPIYMDTKVEQDKDVLEAMKPWRKLIDEKTKLVVGRTNVDLPRDICRSEECALGNLYTDSMIYAFGGKENCKSGSTWTTAPIAFVHAGAMRSSLHQGDILYSDALLLSPFTNMVVAYDLPGAQLKAALEFSAAPKNEDEKRRFLQMSGLKVTYNMSRAANNRIVDLKVRTNVCPYDQYENLDEKKTYRVVSPSFLQGGGDGFKMLRDYAKNIQNQKIDLDALVDYLKKFSPLAPKAEGRITIIH
B1 gave a Kd of 92 nM.
